Source: patent publication US20120177704A1

Molecular target: human interleukin 12 (human) (UniProt P29459)
Test: cell-based or functional assay

UniProt P29459, sequence (P29459 23-219 limits assumed, chain 1 of 2): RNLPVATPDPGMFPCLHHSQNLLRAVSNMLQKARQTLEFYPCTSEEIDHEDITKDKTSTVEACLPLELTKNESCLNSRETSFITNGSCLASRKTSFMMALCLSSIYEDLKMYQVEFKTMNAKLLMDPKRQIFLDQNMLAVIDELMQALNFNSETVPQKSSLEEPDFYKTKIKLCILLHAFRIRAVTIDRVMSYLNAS
UniProt P29459, sequence (P29460 23-328 limits assumed, chain 2 of 2, further chain): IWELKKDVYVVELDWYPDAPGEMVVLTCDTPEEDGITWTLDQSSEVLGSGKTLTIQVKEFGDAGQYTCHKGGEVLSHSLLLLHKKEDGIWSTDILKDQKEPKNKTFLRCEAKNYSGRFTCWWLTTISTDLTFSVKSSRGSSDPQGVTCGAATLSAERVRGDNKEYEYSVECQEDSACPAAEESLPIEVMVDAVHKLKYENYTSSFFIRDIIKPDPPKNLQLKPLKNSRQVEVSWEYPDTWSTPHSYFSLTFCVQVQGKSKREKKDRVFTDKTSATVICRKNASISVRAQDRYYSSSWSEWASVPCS

relative biological activity (mean IC50 of reference standard / IC50 of sample x 100%); inhibition of IL-12-stimulated IFN-γ production of NK-92 cells, IFN-γ measured by ELISA: 98%
Substance: monoclonal antibody ABT-874
